What was measured:
[1] = system: 797TRex cells; experiment: luminescent cell viability assay (CellTiter-Glo), 797TRex; type: cell-based, human; conditions: induced ET domain expression for 120 h
Experimental: (§1) Cells were plated at a density of 3000 per well in a 96-well plate, and CellTiter-Glo (Promega, Madison, Wis.) was used to determine cell viability as a measure of ATP content according to the manufacturer's instructions.

[2] = system: 293T cells; experiment: luminescent cell viability assay (CellTiter-Glo), 293T; type: cell-based; conditions: induced ET domain expression for 120 h
Experimental: as §1

[3] = system: 797TRex cells; experiment: differentiation of 797TRex cells on induced expression of construct (involucrin immunoblot, H&E, IHC); type: cell-based, human; conditions: induced expression for 120 h
Source text: BRD4 ET domain containing fragment (BRD4 444-722) was cloned into pcDNA5 FRT/TO-FLAG (Invitrogen) with an N-terminal SV40 NLS sequence to generate pcDNA5 FRT/TO-Flag-NLS-BRD4-ET (p6894). MSCV-CMV-Flag-HA-NSD3 (p6351) has been described previously (8). To make tetracycline-inducible N- and C-terminal BioTAP-tagged constructs, the inventors transferred the gateway destination cassette from pHAGE-TRE (gift of Steven Elledge) to the pcDNA5 frt/to mammalian expression vector with N-terminal BioTAP tandem tag to make pcDNA5 frt/to-DEST-NBioTAP. NSD3-NUT was constructed by fusion PCR into pDONR223, then transferred into the pcDNA5 frt/to-DEST-NBioTAP vector by gateway cloning. Full length NSD3, NSD3Tr encoding amino acids 1-569 of NSD3, full length NUT, BRD4-NUT (derived from pcDNA5 frt/to FLAG-BRD4-NUT (17)) were PCR-cloned into pDONR223, then transferred by gateway cloning into the pHAGE-P CMVt N-HA GAW expression vector derived from the PHAGE lentiviral vector (52).
NMC cell lines, TC-797 (15) 10-15 (6), 8645(17), 293T, U205, and C33A cells were maintained as monolayer cultures in Dulbecco Modified Eagle medium (DMEM) (Invitrogen) supplemented with 10% (v/v) Fetal Bovine Serum (FBS, SH3008803, Hyclone) and 1% pen-strep (GIBCO/Invitrogen). […]

[4] = system: U2OS cells; experiment: luminescent cell viability assay (CellTiter-Glo), U2OS; type: cell-based; conditions: induced ET domain expression for 120 h
Experimental: as §1

[5] = target: T1, BRD4 (Homo sapiens, UniProt O60885); experiment: anti-HA co-immunoprecipitation in C33A-6TR cells; type: binding; conditions: HA-tagged construct, C33A cervical carcinoma cells
T1 construct: endogenous in cells; host or cells: C33A-6TR (tet-repressor-positive C33A cervical carcinoma cells)
Experimental: For co-immunoprecipitation experiments of HA-tagged proteins, C33A-6TR cells stably expressing HA-tagged constructs under a Tet-inducible promoter were used. Protein extracts were prepared 24 h after transfection or induction with Doxycycline (1 μg/ml). Cells were lysed in lysis buffer (50 mM Tris-HCl [pH 7.5], 150 mM NaCl, 0.5% Nonidet P-40) with freshly added protease inhibitors (Roche Complete, EDTA free protease inhibitor cocktail, Roche, Indianapolis, Ind.). Extracts were adjusted for protein concentration and 10% of extracts were used as Input Immunoprecipitations were performed using 15 μl of HA-resin (Sigma A2095). Extracts were incubated overnight at 4° C., and precipitated proteins were detected by Western blot analysis.

[6] = target: T2, BRD4-NUT foci (Homo sapiens, UniProt O60885+Q86Y26); experiment: immunofluorescence co-localization in 797TRex cells; type: cell-based; conditions: HA-tagged, induced 24 h
T2 construct: composed of the N-terminal of BRD4 (amino acids 1-720 out of 1372); endogenous in cells; host or cells: 797TRex cells (tet-inducible derivative of the BRD4-NUT-positive NMC line TC-797)
Experimental: Immunofluorescence on TC-797 cells was performed as described (55) and nuclei were counterstained with ProLong® Gold antifade reagent with 4′,6-diamidino-2-phenylindole (DAPI) (Life Technologies). Primary antibodies used were anti-NUT (1:1000, rabbit monoclonal clone C52, Cell Signaling Technology), and anti-HA (1:500, mouse monoclonal, Sigma-Aldrich). Secondary antibodies included goat anti-rabbit Alexa Fluor 594 and goat anti-mouse Alexa Fluor 488 (1:1000, Life Technologies, Grand Island, N.Y.). Photos were taken on a Nikon Eclipse E600 fluorescent microscope (Melville, N.Y.) using a Spot RTSlider camera (Diagnostic Instruments, Inc., Sterling Heights, Mich.), and Spot Advanced software (Diagnostic Instruments, Inc.).

Molecule | proliferation rate (cell viability, CellTiter-Glo) [1] | growth (cell viability, CellTiter-Glo) [2] | differentiation (morphology, involucrin) [3] | growth (cell viability, CellTiter-Glo) [4] | co-immunoprecipitation of BRD4 [5] | co-localization with BRD4-NUT foci [6]
ET domain: BRD4 ET domain containing fragment (BRD4 444-722) with N-terminal SV40 NLS, FLAG-tagged, tet-inducibly expressed (protein, left off: small tags and cut ends, BRD4 ET domain containing fragment (BRD4 444-722) with N-terminal SV40 NLS, FLAG-tagged, tet-inducibly expressed) KLQDVFEMRFAKMPDEPEEPVVAVSSPAVPPPTKVVAPPSSSDSSSDSSSDSDSSTDDSEEERAQRLAELQEQLKAVHEQLAALSQPQQNKPKKKEKDKKEKKKEKHKRKEEVEENKKSKAKEPPPKKTKKNNSSNSNVSRKEPAPMKSKPPPTYESEEEDKCKPMSYEEKRQLSLDINLPGEKLGRVVHIIQSREPSLKNSNPDEIEIDFETLKPSTLRELERYVTSCLRKKRKPQAEICVDVIAGSSKMKGFSSSESESSSESSSSDSEDSETEMAP | negatively affected the proliferation rate | unaffected | inducing differentiation morphologically and immunophenotypically | unaffected | – | –
NSD3Tr: portion of NSD3 present in NSD3-NUT, amino acids 1-569 of NSD3, HA- or BioTAP-tagged, inducibly expressed (protein, left off: large carriers; small tags and cut ends, portion of NSD3 present in NSD3-NUT, amino acids 1-569 of NSD3, HA- or BioTAP-tagged, inducibly expressed) MDFSFSFMQGIMGNTIQQPPQLIDSANIRQEDAFDNNSDIAEDGGQTPYEATLQQGFQYPATTEDLPPLTNGYPSSISVYETQTKYQSYNQYPNGSANGFGAVRNFSPTDYYHSEIPNTRPHEILEKPSPPQPPPPPSVPQTVIPKKTGSPEIKLKITKTIQNGRELFESSLCGDLLNEVQASEHTKSKHESRKEKRKKSNKHDSSRSEERKSHKIPKLEPEEQNRPNERVDTVSEKPREEPVLKEEAPVQPILSSVPTTEVSTGVKFQVGDLVWSKVGTYPWWPCMVSSDPQLEVHTKINTRGAREYHVQFFSNQPERAWVHEKRVREYKGHKQYEELLAEATKQASNHSEKQKIRKPRPQRERAQWDIGIAHAEKALKMTREERIEQYTFIYIDKQPEEALSQAKKSVASKTEVKKTRRPRSVLNTQPEQTNAGEVASSLSSTEIRRHSQRRHTSAEEEEPPPVKIAWKTAAARKSLPASITMHKGSLDLQKCNMSPVVKIEQVFALQNATGDGKFIDQFVYSTKGIGNKTEISVRGQDRLIISTPNQRNEKPTQSVSSPEATSGST | – | – | found to induce differentiation | – | co-immunoprecipitated BRD4 | co-localized with BRD4-NUT foci

Source: patent publication US20170007595A1, “NSD3 INHIBITORS FOR TREATMENT OF CANCERS” (THE BRIGHAM AND WOMEN'S HOSPITAL, INC., priority 2014, published 2017)
